According to the supplement of paper PMC10567573:

B1: KLHDC10 (parent)
chain: FGGTGIPFGESNGNGVHVCNVKYK

Variants of: B1
Test: protein stability index of a GFP-peptide fusion (GPS, HEK-293T) (PSI 1-6); higher = more stable
Details: c terminus: a fixed tail appended
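Also: lentivirally expressed fusions sorted by FACS into six bins by GFP to DsRed ratio, PSI derived from sequencing read proportions per bin multiplied by bin number.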

Protein stability index: each site, then its substitutions
G9: V 2.57; S 1.74; H 2.72; N 2.29; K 1.79; L 1.39; R 1.76; W 2.89; Y 2.15; I 2.16; P 2.44; T 1.66; D 3.04; C 1.41; Q 1.88; M 1.18; E 3.16; A 1.85
G15: S 2.14; I 1.77; D 2.3; F 1.49; N 1.52; L 1.73; K 2.1; R 1.82; M 1.52; Y 1.42; C 1.58; V 1.9; T 1.92; E 2.34; P 2.06; W 1.62; H 1.9; A 1.59; Q 1.78
G13: L 2.05; C 1.59; Q 2.38; K 2.06; S 1.92; E 2.28; H 1.77; A 2.02; Y 2.09; V 2.17; P 1.91; F 1.9; D 2.18; N 1.7; M 2.73; R 2.36; W 2.03; I 1.38; T 2.58
S11: V 2.35; M 2.25; H 2.2; T 1.96; Q 2.06; G 1.54; E 2.82; N 1.91; A 1.97; F 1.72; K 1.87; I 2.73; W 2.4; C 1.82; D 2.52; Y 1.65; R 1.97; L 1.62; P 2.3
N12: Q 2.06; Y 2.59; K 1.82; R 1.51; A 1.85; M 1.9; C 1.63; P 1.73; V 1.6; D 2.33; H 2.22; W 1.74; G 1.62; S 1.74; I 1.58; E 2.11; L 1.87; T 1.97; F 1.41
P7: V 2.92; Y 2.5
N14: P 1.91; Q 2.03; H 2.12; R 2.04; Y 1.62; E 2.47; C 1.87; A 1.82; L 1.81; V 2.67; G 1.54; T 1.98; K 1.81; F 1.62; W 3.08; S 1.9; M 1.99; I 1.2; D 1.87
E10: R 2.46; Y 1.45; V 2.49; F 1.7; M 2.26; L 2.43; T 1.62; I 2.39; Q 2.94; D 1.73; C 1.51; K 1.46; S 3.04; N 3.06; P 1.95; A 2.94; W 2.59; G 1.68; H 1.99
V16: A 2.6; E 2.97; F 2.23; D 2.42; Q 2.04; L 1.39; I 2.46; G 2.47; H 2.1; M 1.89; K 2.15; C 1.19; N 2.06; P 2.43
F8: A 3.78; D 4.16; W 1.98; V 2.83; R 3.37; P 4.12; M 3.02; L 3.04; H 2.65; G 3.58; Y 2.16; E 4.3; T 3.22; Q 3.75; S 3.62; C 3.02; N 3.61; K 3.84; I 2.5
